Where a chain is given by its changes, count along the chain named.

Drawing on PMC11272584 (Nature Metabolism, 2024), this text covers β-arrestin 2 recruitment (BRET) on stimulation with GIP(1-42): logEC50 (Arrestin) (log M (inferred)) for 1 substance.

One assay concerns the target T1, GIPR E291K (human) (UniProt P48546).
T1 sequence: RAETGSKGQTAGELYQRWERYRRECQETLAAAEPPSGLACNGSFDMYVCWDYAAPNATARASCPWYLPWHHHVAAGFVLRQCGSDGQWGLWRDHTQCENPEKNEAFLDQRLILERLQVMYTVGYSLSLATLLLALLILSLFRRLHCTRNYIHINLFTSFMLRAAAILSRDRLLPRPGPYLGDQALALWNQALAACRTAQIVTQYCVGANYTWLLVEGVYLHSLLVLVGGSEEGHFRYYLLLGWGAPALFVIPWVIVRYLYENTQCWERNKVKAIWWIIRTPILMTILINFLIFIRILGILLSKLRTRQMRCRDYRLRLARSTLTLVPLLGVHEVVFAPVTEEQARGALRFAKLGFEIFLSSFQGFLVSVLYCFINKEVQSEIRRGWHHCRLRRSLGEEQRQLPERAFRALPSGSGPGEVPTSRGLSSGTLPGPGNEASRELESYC

In another assay the target is T2, GIPR H166Y (human) (UniProt P48546).
T2 sequence: T1 sequence with H145Y, K270E

Another assay concerns the target T3, GIPR L304R (human) (UniProt P48546).
T3 sequence: T1 sequence with K270E, L283R

The target in the next assay is T4, GIPR P195R (human) (UniProt P48546).
T4 sequence: T1 sequence with P174R, K270E

A further assay concerns the target T5, GIPR R190Q (human) (UniProt P48546).
T5 sequence: T1 sequence with R169Q, K270E

The target of another assay is T6, GIPR T116R (human) (UniProt P48546).
T6 sequence: T1 sequence with T95R, K270E

On to “β-arrestin 2 (Rluc8-Arrestin-3-Sp1) (from UniProt P32121 1-409) (natural protein)”, for which the β-arrestin 2 recruitment (BRET) on stimulation with GIP(1-42): logEC50 (Arrestin) (log M (inferred)) was -8.48 with GIPR E291K (human); -9.22 with GIPR H166Y (human); -9.41 with GIPR L304R (human); -9.04 in the assay with GIPR P195R (human); -8.86 with GIPR R190Q (human); -8.71 with GIPR T116R (human).
